Data taken from patent US10047131B2, “Peptides and combination of peptides for use in immunotherapy against ovarian cancer and other cancers” (immatics biotechnologies GmbH, priority 2015, dated 2018).

biological target: HLA-A*02:01 (Homo sapiens, UniProt P04439, D140Y/D185E/D98H/E176V/E277Q/G131W/G231S/I119V/I121R/I166T/I218V/L300P/L318F/N151K/N90K/P208A/P217A/Q86G/Q94H/R138H/R169H/T345S); test: MHC binding assay (UV-ligand exchange, ELISA of exchange yield); details: binding to HLA-A*02:01, UV-ligand exchange
Description: Candidate peptides for T cell based therapies according to the present invention were further tested for their MHC binding capacity (affinity). The individual peptide-MHC complexes were produced by UV-ligand exchange, where a UV-sensitive peptide is cleaved upon UV-irradiation, and exchanged with the peptide of interest as analyzed. Only peptide candidates that can effectively bind and stabilize the peptide-receptive MHC molecules prevent dissociation of the MHC complexes. To determine the yield of the exchange reaction, an ELISA was performed based on the detection of the light chain (p2m) of stabilized MHC complexes. The assay was performed as generally described in Rodenko et al. (Rodenko et al., 2006).
96 well MAXISorp plates (NUNC) were coated over night with 2 μg/ml streptavidin in PBS at room temperature, washed 4× and blocked for 1 h at 37° C. in 2% BSA containing blocking buffer. […] Peptide-MHC monomers of the UV-exchange reaction were diluted 100 fold in blocking buffer. Samples were incubated for 1h at 37° C., washed four times, incubated with 2 μg/ml HRP conjugated anti-β2m for 1h at 37° C., washed again and detected with TMB solution that is stopped with […]. Absorption was measured at 450 nm. Candidate peptides that show a high exchange yield (preferably higher than 50%, most preferred higher than 75%) are generally preferred for a generation and production of antibodies or fragments thereof, and/or T cell receptors or fragments thereof, as they show sufficient avidity to the MHC molecules and prevent dissociation of the MHC complexes.

Substance	Peptide exchange (MHC class I binding score, peptide exchange yield)
1 (SLMEPPAVLLL; listed as Homo sapiens) [compound 1]	“+++” (≥50 = +++)
2 (SLLEADPFL; listed as Homo sapiens) [compound 2]	“+++” (≥50 = +++)
3 (SLASKLTTL; listed as Homo sapiens) [compound 3]	“++++” (≥75% = ++++)
5 (HLTEVYPEL; listed as Homo sapiens) [compound 5]	“+++” (≥50 = +++)
6 (VLVSDGVHSV; listed as Homo sapiens) [compound 6]	“+++” (≥50 = +++)
9 (GAAKDLPGV; listed as Homo sapiens) [compound 9]	“++” (≥20% = ++)
16 (VLFQGQASL; listed as Homo sapiens) [compound 16]	“+++” (≥50 = +++)
17 (GLLPGDRLVSV; listed as Homo sapiens) [compound 17]	“+++” (≥50 = +++)
19 (FMVDNEAIYDI; listed as Homo sapiens) [compound 19]	“++++” (≥75% = ++++)
20 (RMIEYFIDV; listed as Homo sapiens) [compound 20]	“+++” (≥50 = +++)
21 (VLDELDMEL; listed as Homo sapiens) [compound 21]	“++” (≥20% = ++)
23 (VLLDDIFAQL; listed as Homo sapiens) [compound 23]	“+++” (≥50 = +++)
24 (SLSDGLEEV; listed as Homo sapiens) [compound 24]	“++” (≥20% = ++)
25 (FLPDEPYIKV; listed as Homo sapiens) [compound 25]	“+++” (≥50 = +++)
26 (ALLELAEEL; listed as Homo sapiens) [compound 26]	“+++” (≥50 = +++)
27 (ILADIVISA; listed as Homo sapiens) [compound 27]	“+++” (≥50 = +++)
30 (LILDWVPYI; listed as Homo sapiens) [compound 30]	“+++” (≥50 = +++)
33 (VLLSLLEKV; listed as Homo sapiens) [compound 33]	“++” (≥20% = ++)

Substance	Peptide exchange (MHC class I binding score, peptide exchange yield)
34 (ILVEADSLWVV; listed as Homo sapiens) [compound 34]	“+++” (≥50 = +++)
35 (KINDTIYEV; listed as Homo sapiens) [compound 35]	“+++” (≥50 = +++)
39 (SVAPNLPAV; listed as Homo sapiens) [compound 39]	“+++” (≥50 = +++)
40 (TLLVKVFSV; listed as Homo sapiens) [compound 40]	“+++” (≥50 = +++)
42 (VLLQKIVSA; listed as Homo sapiens) [compound 42]	“+++” (≥50 = +++)
44 (ILDPISSGFLL; listed as Homo sapiens) [compound 44]	“++” (≥20% = ++)
45 (SLWQDIPDV; listed as Homo sapiens) [compound 45]	“+++” (≥50 = +++)
47 (ILLSVPLLVV; listed as Homo sapiens) [compound 47]	“++” (≥20% = ++)
49 (YLPAVFEEV; listed as Homo sapiens) [compound 49]	“+++” (≥50 = +++)
50 (SLSELEALM; listed as Homo sapiens) [compound 50]	“+++” (≥50 = +++)
51 (LLPDLEFYV; listed as Homo sapiens) [compound 51]	“++++” (≥75% = ++++)
52 (FLLAHGLGFLL; listed as Homo sapiens) [compound 52]	“++++” (≥75% = ++++)
54 (SLLEQGKEPWMV; listed as Homo sapiens) [compound 54]	“+++” (≥50 = +++)
57 (TLAELQPPVQL; listed as Homo sapiens) [compound 57]	“+++” (≥50 = +++)
59 (IMEDIILTL; listed as Homo sapiens) [compound 59]	“+++” (≥50 = +++)
61 (FLQGYQLHL; listed as Homo sapiens) [compound 61]	“++++” (≥75% = ++++)
62 (VLLDVSAGQLLM; listed as Homo sapiens) [compound 62]	“++++” (≥75% = ++++)
63 (YLLPSGGSVTL; listed as Homo sapiens) [compound 63]	“++” (≥20% = ++)

Results, then the substance that gave them:

Peptide exchange (MHC class I binding score, peptide exchange yield)	Substance
“++++” (≥75% = ++++)	4 (GIMEHITKI; listed as Homo sapiens) [compound 4]
“++++” (≥75% = ++++)	7 (SLVGLLLYL; listed as Homo sapiens) [compound 7]
“++++” (≥75% = ++++)	8 (FTLGNVVGMYL; listed as Homo sapiens) [compound 8]
“++++” (≥75% = ++++)	10 (FLATFPLAAV; listed as Homo sapiens) [compound 10]
“+++” (≥50 = +++)	11 (KIFEMLEGV; listed as Homo sapiens) [compound 11]
“+++” (≥50 = +++)	12 (SLWPDPMEV; listed as Homo sapiens) [compound 12]
“+++” (≥50 = +++)	13 (YLMDESLNL; listed as Homo sapiens) [compound 13]
“+++” (≥50 = +++)	14 (AAYGGLNEKSFV; listed as Homo sapiens) [compound 14]
“++” (≥20% = ++)	15 (VLLTFKIFL; listed as Homo sapiens) [compound 15]
“++” (≥20% = ++)	18 (YLVAKLVEV; listed as Homo sapiens) [compound 18]
“+++” (≥50 = +++)	22 (IMEENPGIFAV; listed as Homo sapiens) [compound 22]
“+++” (≥50 = +++)	28 (QLLDETSAITL; listed as Homo sapiens) [compound 28]
“+++” (≥50 = +++)	29 (KMLGIPISNILMV; listed as Homo sapiens) [compound 29]
“++” (≥20% = ++)	31 (YLAPELFVNV; listed as Homo sapiens) [compound 31]
“++” (≥20% = ++)	32 (KLDDLTQDLTV; listed as Homo sapiens) [compound 32]
“++” (≥20% = ++)	36 (YVLEDLEVTV; listed as Homo sapiens) [compound 36]
“+++” (≥50 = +++)	38 (FLLEDDIHVS; listed as Homo sapiens) [compound 38]
“+++” (≥50 = +++)	41 (SLMPHIPGL; listed as Homo sapiens) [compound 41]
“++” (≥20% = ++)	43 (VLSSLEINI; listed as Homo sapiens) [compound 43]
“+++” (≥50 = +++)	46 (ILTEENIHL; listed as Homo sapiens) [compound 46]
“+++” (≥50 = +++)	48 (ALAELYEDEV; listed as Homo sapiens) [compound 48]
“++++” (≥75% = ++++)	53 (KMIETDILQKV; listed as Homo sapiens) [compound 53]
“++++” (≥75% = ++++)	55 (SLLDLETLSL; listed as Homo sapiens) [compound 55]
“++++” (≥75% = ++++)	56 (KLYEGIPVLL; listed as Homo sapiens) [compound 56]
“++++” (≥75% = ++++)	60 (SLTIDGIYYV; listed as Homo sapiens) [compound 60]
“++” (≥20% = ++)	64 (YAAPGGLIGV; listed as Homo sapiens) [compound 64]
“+++” (≥50 = +++)	66 (FLDENIGGVAV; listed as Homo sapiens) [compound 66]
